Assay results as given in patent publication US20060177448.

Biological target: gDHER2(DIV)-IgG, P04626

B1: purified catalytic domain of MT5-MMP (MMP-25) (protein)
chain: YALSGSVWKKRTLTWRVRSFPQSSQLSQETVRVLMSYALMAWGMESGLTFHEVDSPQGQEPDILIDFARAFHQDSYPFDGLGGTLAHAFFPGEHPISGDTHFDDEETWTFGSKDGEGTDLFAVAVHEFGHALGLGHSSAPNSIMRPFYQGPVGDPDKYRLSQDDRDGLQQLYG
Q: For B1, which “in vitro HER2 cleavage (sheddase) assay, stained gel” value is on record?
A: The value was “All MT-MMPs except MMP-14 efficiently cleave gDHER2(DIV)-IgG substrate”.
